Experimental data published in paper PMC11452662, “Biofunctionalized dissolvable hydrogel microbeads enable efficient characterization of native protein complexes” (Nature Communications, 2024).
Values joined by “and” are separate entries in the source; they are usually repeats but may differ in a detail not shown here. Equal entries are not always repeated.

T1: Thermoplasma acidophilum 20S proteasome β subunit with Twin-Strep-tag (Thermoplasma acidophilum, UniProt P28061 9-211)
T1 construct: 20S proteasome β subunit of Thermoplasma acidophilum; not shown: Twin-Strep-tag, C-terminal, kept
T1 sequence (looked up): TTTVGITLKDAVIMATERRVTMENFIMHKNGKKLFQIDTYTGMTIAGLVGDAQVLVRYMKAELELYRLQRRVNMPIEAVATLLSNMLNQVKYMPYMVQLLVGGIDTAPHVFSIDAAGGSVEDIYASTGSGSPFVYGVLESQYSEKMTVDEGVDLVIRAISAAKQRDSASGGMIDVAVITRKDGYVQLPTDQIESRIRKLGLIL


Legend:
[1] = biological target: Hp of the Hp(2)Ab(1) complex; assay: native MS; tandem MS with increasing collisional energy of the bait-target complex Hp(2)Hb(4)Ab(1), Hb as bait
[2] = biological target: T1, Thermoplasma acidophilum 20S proteasome …; assay: native MS; 20S purified with Strep-Tactin SNAP beads, α and β coded in the same plasmid; 150 mM ammonium acetate; settings: partners not purified
[3] = biological target: the molecule itself; assay: native MS; 20S purified with Strep-Tactin SNAP beads, α and β expressed from two separate plasmids; 150 mM ammonium acetate

stoichiometry N [1] | stoichiometry N [2] | Molecule | stoichiometry N [3]
2 |  | Hp of the Hp(2)Ab(1) complex | 
 | 28 subunits in the complex of α and β | Thermoplasma acidophilum 20S proteasome α subunit, unmodified (natural protein, UniProt P25156 1-233, looked up, 20S proteasome α subunit of Thermoplasma acidophilum; The results call this α subunit unmodified; the methods say that the constructs were tagged at the C-termini with either a Twin-Strep-tag or a His tag) MQQGQMAYDRAITVFSPDGRLFQVEYAREAVKKGSTALGMKFANGVLLISDKKVRSRLIEQNSIEKIQLIDDYVAAVTSGLVADARVLVDFARISAQQEKVTYGSLVNIENLVKRVADQMQQYTQYGGVRPYGVSLIFAGIDQIGPRLFDCDPAGTINEYKATAIGSGKDAVVSFLEREYKENLPEKEAVTLGIKALKSSLEEGEELKAPEIASITVGNKYRIYDQEEVKKFL | 7 and 14
